Assay results from patent publication US11673947B2, “Target tissue-specific antigen-binding molecule” (Chugai Seiyaku Kabushiki Kaisha, priority 2012, dated 2023).

What was measured:
[1] = biological target: T1, hIL-6R (Homo sapiens, UniProt P08887); experiment: IgG ELISA, binding to hIL-6R in mouse serum with or without kynurenine; settings: Table 20: condition 1 (mouse serum without kynurenine) vs condition 2 (mouse serum in the presence of kynurenine)
T1 sequence (P08887 20-355 limits assumed): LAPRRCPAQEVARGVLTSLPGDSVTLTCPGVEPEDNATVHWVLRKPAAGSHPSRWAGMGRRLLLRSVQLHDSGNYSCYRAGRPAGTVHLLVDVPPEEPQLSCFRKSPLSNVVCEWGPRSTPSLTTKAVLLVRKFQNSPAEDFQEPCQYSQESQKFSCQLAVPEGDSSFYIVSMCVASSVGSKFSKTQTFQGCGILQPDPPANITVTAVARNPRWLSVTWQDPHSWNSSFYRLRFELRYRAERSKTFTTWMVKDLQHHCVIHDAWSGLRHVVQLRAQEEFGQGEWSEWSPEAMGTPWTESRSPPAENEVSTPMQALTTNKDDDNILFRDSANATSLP
Experimental: As described in Example 14, antibody 6RNMSC1-2_F02 which has antigen-binding activity in the presence of kynurenine, and the known anti-hIL-6R antibody MRA were subjected to ELISA under the two conditions described in Table 20. The antigen used was biotin-labeled hIL-6R.
First, a StreptaWell 96 microtiter plate (Roche) was coated at room temperature for one hour or more with 100 μl of PBS containing the biotin-labeled antigen. After washing with Wash buffer to remove unbound antigen from the plate, each well was blocked for one hour or more with 250 μl of Blocking Buffer. After Blocking Buffer was removed from each well, each of the purified IgGs was prepared to 2.5 μg/ml under condition 2 shown in Table 20, and aliquoted at 100 μl into the plate. The plate was allowed to stand at room temperature for one hour to allow binding of each IgG to the antigen in each well. After washing with Wash Buffer containing 100 μM kynurenine, an HRP-conjugated anti-human IgG antibody (BIOSOURCE) diluted with Sample Buffer containing kynurenine was added to each well. The plate was incubated for one hour. Following wash with Wash Buffer containing kynurenine, the TMB single solution (ZYMED) was added to each well. The chromogenic reaction in the solution of each well was terminated by adding sulfuric acid. Then, the developed color was assessed by measuring absorbance at 450 nm.

[2] = test system: BaF/hIL-6R cells; experiment: Flow cytometry, binding to membrane-type hIL-6R on BaF/hIL-6R cells; type: cell-based
Experimental: 6RNMSC1-2_F02 antibody which has an antigen-binding activity in the presence of kynurenine as described in Example 14 was assessed for its binding to soluble hIL-6R. As a first step in assessing the ADCC activity of 6RNMSC1-2_F02 to hIL-6R-expressing cells, 6RNMSC1-2_F02 was evaluated as to whether it has the ability to bind to membrane-type hIL-6R expressed in hIL-6R-expressing cells. Specifically, the binding of 6RNMSC1-2_F02 to cells of the BaF/hIL-6R line (WO2012/073992) was assayed and analyzed using a flow cytometer. An appropriate number of BaF/hIL-6R cells were prepared and blocked with PBS containing 2% FBS on ice for one hour or more. Supernatant was removed from the blocked cells by centrifugation, and 100 μl of 6RNMSC1-2_F02 or the control antibody MRA (the heavy chain and light chain sequences are shown in SEQ ID NOs: 92 and 93, respectively) was added under two conditions: in the presence or absence of a final concentration of kynurenine at 100 μM. In this step, the antibodies were contacted with cell-membrane hIL-6R on ice for 30 minutes. […] Then, in the presence or absence of kynurenine, the complex was contacted with a secondary antibody (Beckman Coulter IM1627) that recognizes the antibody constant region. […] The binding of 6RNMSC1-2_F02 to the prepared cells was assayed and analyzed using the BD FACS cant II Flow Cytometer (BD).

B1: 6RNMSC1-2_F02: antibody that binds to hIL-6R in the presence of kynurenine; SEQ ID NOs: 86 and 87 (antibody, listed as Homo sapiens, V domains shown)
VH: QVQLVQSGAEVKKPGSSVKVSCKASGGTFSSYAISWVRQAPGQGLEWMGGIIPIFGTANYAQKFQGRVTITADESTSTAYMELSSLRSEDTAVYYCARDAPVVARPRGAFDIWGQGTMVTVSS
VL: DIVMTQTPLSSPVTLGQPASISCRSSQSLVHSDGNTYLSWLQQRPGQPPRLLIHEISNRFSGVPDRFSGSGAGTNFTLKISRVEAEDVGVYYCMQATQFPRTFGQGTKVEIK
absorbance under condition 1 as compared to condition 2 [1]: markedly lower | fluorescence (binding to membrane-type hIL-6R) ([2]; in the absence of kynurenine): not detectable | fluorescence (binding to membrane-type hIL-6R) ([2]; in the presence of 100 μM kynurenine): fluorescence shift was observed
